Data reported in US8221993, “Methods of detecting methyl transferase activity and methods of screening for methyl transferase activity modulators” (Onco Therapy Science, Inc.).

Experiments:
[1] = molecular target: GST (UniProt P08515 P08515:1-218); assay: GST control
[2] = molecular target: Tcf4 wild-type (UniProt Q9NQB0 Q9NQB0:1-619); assay: positive control; settings: tags: GST fusion
[3] = molecular target: T1, ZNFN3A1 (SMYD3) (Homo sapiens, UniProt Q9H7B4 SEQ:1-428); assay: specificity control; settings: tags: GST fusion, E. coli
T1 chain: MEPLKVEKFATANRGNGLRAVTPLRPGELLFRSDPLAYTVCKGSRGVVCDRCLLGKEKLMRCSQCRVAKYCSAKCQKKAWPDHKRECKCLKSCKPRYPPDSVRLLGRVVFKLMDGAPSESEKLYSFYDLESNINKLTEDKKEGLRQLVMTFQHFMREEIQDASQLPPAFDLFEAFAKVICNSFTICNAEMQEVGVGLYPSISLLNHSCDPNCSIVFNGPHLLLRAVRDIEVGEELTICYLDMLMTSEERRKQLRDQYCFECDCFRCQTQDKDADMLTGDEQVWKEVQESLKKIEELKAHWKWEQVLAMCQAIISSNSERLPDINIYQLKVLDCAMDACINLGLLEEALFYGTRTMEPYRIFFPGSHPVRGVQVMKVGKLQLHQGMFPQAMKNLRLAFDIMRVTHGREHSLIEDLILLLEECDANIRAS

[4] = molecular target: T1, ZNFN3A1 (SMYD3); assay: in vitro binding assay; inhibited by cold competitor DNA; settings: tags: GST fusion, E. coli

Sequence of GST (P08515 whole entry, the tested form may be a part, one chain of several): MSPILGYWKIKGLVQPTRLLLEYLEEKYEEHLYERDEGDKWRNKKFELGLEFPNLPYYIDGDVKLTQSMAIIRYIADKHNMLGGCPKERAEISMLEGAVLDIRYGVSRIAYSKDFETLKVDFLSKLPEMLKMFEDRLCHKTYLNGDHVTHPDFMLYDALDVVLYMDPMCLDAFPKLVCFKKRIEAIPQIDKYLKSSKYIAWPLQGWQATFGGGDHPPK
Sequence of Tcf4 wild-type (Q9NQB0 whole entry, the tested form may be a part, one chain of several): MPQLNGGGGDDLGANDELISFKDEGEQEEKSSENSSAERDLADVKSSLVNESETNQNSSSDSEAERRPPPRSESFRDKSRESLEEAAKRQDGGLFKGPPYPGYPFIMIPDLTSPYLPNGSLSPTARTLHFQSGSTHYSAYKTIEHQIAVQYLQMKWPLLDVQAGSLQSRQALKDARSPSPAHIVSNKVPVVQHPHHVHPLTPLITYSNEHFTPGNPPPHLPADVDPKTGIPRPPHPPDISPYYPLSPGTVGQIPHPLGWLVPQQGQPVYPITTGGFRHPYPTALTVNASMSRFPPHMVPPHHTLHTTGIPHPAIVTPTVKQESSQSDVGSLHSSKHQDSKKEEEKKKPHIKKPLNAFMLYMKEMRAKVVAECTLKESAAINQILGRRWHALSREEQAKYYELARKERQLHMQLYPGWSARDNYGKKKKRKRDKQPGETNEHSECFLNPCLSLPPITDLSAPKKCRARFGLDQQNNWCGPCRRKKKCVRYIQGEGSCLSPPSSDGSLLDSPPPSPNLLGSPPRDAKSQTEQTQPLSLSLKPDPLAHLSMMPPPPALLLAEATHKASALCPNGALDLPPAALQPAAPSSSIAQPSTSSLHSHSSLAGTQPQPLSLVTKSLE

B1: wtTBM (Tcf4-binding motif) (dsDNA)
DNA 1: CCCTTTGATCTTACC
DNA 2: GGTAAGATCAAAGGG
B1: no binding [1]; binds [2]; no binding [3].

B2: ZBE2 (Nkx2.8 ZNFN3A1-binding element) (dsDNA)
DNA 1: TTACGCCCTCCTGAAACTTGTCATCCTGAATCTTAGAGGGGCCC
DNA 2: GGGCCCCTCTAAGATTCAGGATGACAAGTTTCAGGAGGGCGTAA
B2: binds [4]; no binding [1].
